Reference: patent US20250340653A1

Molecular target: Canine IL-31RA ECD-10His (canine)
Assay: ELISA, IL-31RA coated at 1 ug/mL, biotinylated IL-31 titrated, HRP-streptavidin

Chain of Canine IL-31RA ECD-10His (canine) (chain, as listed by the source limits assumed): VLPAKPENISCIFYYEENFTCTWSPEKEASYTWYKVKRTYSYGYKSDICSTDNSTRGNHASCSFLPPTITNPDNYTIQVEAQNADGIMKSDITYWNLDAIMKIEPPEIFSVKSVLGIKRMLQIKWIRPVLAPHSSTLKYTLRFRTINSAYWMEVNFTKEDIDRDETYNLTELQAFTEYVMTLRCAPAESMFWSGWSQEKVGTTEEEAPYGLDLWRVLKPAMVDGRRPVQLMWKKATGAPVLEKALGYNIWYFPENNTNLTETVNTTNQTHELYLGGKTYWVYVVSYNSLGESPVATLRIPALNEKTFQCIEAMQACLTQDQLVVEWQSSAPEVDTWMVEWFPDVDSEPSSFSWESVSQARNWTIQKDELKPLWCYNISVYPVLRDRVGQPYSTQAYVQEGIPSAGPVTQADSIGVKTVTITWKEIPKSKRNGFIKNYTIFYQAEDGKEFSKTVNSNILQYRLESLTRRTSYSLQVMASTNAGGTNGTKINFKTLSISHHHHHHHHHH

Substance canine IL-31 (ligand) has an EC50 of 0.55 ng/mL.
